Measurements: PMC7423155, “RCC1L (WBSCR16) isoforms coordinate mitochondrial ribosome assembly through their interaction with GTPases” (PLoS Genetics, 2020)

Molecular target: T1, STREP2-FLAG-tagged RCC1L^V1 (human, UniProt Q96I51 38-464)
T1 construct: RCC1L (WBSCR16), human, isoform RCC1L^V1, the principal isoform, 464 amino acids as precursor; isoform cDNA expressed in cells and recovered from purified mitochondria; pcDNA5/FRT/TO; carboxy-terminal STREP2 followed by FLAG; also called RCC1L^V1-FLAG; WBSCR16 isoform V1; source: inducible transgenic HEK cell line (doxycycline), in lysate of purified mitochondria; not shown: STREP2, C-terminal, …
T1 sequence (Q96I51 38-464): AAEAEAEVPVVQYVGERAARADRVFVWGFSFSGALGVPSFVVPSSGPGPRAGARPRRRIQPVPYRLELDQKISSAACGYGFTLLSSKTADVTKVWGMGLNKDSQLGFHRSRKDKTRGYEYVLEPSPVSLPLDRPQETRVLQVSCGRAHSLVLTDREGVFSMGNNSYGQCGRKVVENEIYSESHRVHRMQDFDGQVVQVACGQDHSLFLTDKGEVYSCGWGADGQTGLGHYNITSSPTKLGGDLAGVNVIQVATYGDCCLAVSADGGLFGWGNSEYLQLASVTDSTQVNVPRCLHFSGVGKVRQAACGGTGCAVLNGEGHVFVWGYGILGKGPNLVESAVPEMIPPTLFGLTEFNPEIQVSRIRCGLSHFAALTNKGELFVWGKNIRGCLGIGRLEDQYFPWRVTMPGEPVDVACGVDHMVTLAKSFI
Assay: co-IP; STREP2-FLAG-tagged RCC1L isoform as bait, captured on Strep-Tactin Sepharose overnight from trypsin-treated, sucrose gradient-purified HEK mitochondria lysed with 0.8% DDM; 10 washes; elution with 10 mM desthiobiotin; endogenous proteins in the elution found by immunoblot
Settings: partners not purified

fold enrichment in the pull-down over MTG1: 5 fold
fold enrichment in the pull-down over MTG2: 4 fold
B1: GTPBP10 (enzyme, human (endogenous in HEK293T), UniProt A4D1E9 1-387, looked up)
chain: MVHCSCVLFRKYGNFIDKLRLFTRGGSGGMGYPRLGGEGGKGGDVWVVAQNRMTLKQLKDRYPRKRFVAGVGANSKISALKGSKGKDCEIPVPVGISVTDENGKIIGELNKENDRILVAQGGLGGKLLTNFLPLKGQKRIIHLDLKLIADVGLVGFPNAGKSSLLSCVSHAKPAIADYAFTTLKPELGKIMYSDFKQISVADLPGLIEGAHMNKGMGHKFLKHIERTRQLLFVVDISGFQLSSHTQYRTAFETIILLTKELELYKEELQTKPALLAVNKMDLPDAQDKFHELMSQLQNPKDFLHLFEKNMIPERTVEFQHIIPISAVTGEGIEELKNCIRKSLDEQANQENDALHKKQLLNLWISDTMSSTEPPSKHAVTTSKMDII
notes: GTPBP10, mitochondrial GTPase of mtLSU assembly, human; endogenous mitochondrial protein; source: endogenous, lysate of purified HEK mitochondria
